The values that follow come from publication PMC5575267, “A novel function of cIAP1 as a mediator of CHIP-driven eIF4E regulation” (Scientific Reports, 2017).

In assay [1] the target is T1, GST-cIAP1 (human, UniProt Q13490 1-618).
T1 construct: also called GST-cIAP1 beads; source: bacteria, purified (cloned into pGEX4T-1)
The assay can be described thus: pull-down; His-tag pull-down: eIF4E-6His beads pre-incubated with GST-cIAP1 (also in increasing amounts), then incubated with GST-CHIP or GST alone; WB with anti-GST antibody. The conditions noted are these: both partners purified.

For assay [2], the target named is T1, GST-cIAP1. The assay can be described thus: pull-down; GST pull-down: GST or GST fusion protein on glutathione beads incubated with 6His-tagged protein in 100 mM Tris pH 8.0, 100 mM NaCl, 2 mM EDTA, 5% glycerol, 2 h at 4 °C; WB with anti-His antibody. To be noted: both partners purified.

T1 sequence (Q13490 whole entry): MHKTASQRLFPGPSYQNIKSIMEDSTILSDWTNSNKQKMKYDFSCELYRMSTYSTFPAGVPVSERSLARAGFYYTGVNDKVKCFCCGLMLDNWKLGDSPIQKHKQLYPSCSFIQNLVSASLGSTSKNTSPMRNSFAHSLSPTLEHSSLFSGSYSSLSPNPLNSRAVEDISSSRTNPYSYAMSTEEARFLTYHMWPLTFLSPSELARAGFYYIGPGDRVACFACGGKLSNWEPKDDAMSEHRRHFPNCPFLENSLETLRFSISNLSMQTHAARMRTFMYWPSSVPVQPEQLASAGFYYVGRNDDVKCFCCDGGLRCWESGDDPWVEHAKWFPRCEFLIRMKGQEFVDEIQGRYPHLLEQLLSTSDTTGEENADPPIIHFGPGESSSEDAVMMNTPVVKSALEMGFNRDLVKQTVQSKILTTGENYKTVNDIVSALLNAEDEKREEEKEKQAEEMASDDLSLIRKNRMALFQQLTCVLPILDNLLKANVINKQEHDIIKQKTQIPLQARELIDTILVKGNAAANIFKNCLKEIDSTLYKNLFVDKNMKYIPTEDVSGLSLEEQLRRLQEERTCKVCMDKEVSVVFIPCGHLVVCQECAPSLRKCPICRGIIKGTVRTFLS

B1: GST-CHIP WT (natural protein, UniProt Q9UNE7 1-303, looked up)
chain: MKGKEEKEGGARLGAGGGSPEKSPSAQELKEQGNRLFVGRKYPEAAACYGRAITRNPLVAVYYTNRALCYLKMQQHEQALADCRRALELDGQSVKAHFFLGQCQLEMESYDEAIANLQRAYSLAKEQRLNFGDDIPSALRIAKKKRWNSIEERRIHQESELHSYLSRLIAAERERELEECQRNHEGDEDDSHVRAQQACIEAKHDKYMADMDELFSQVDEKRKKRDIPDYLCGKISFELMREPCITPSGITYDRKDIEEHLQRVGHFDPVTRSPLTQEQLIPNLAMKEVIDAFISENGWVEDY
notes: source: bacteria, purified (cloned into pGEX4T-1)
Consider B1, for which the binding result in the assay with GST-cIAP1 [1] is “binds”.

B2: CHIP WT-6His (natural protein, UniProt Q9UNE7 1-303, looked up)
chain: MKGKEEKEGGARLGAGGGSPEKSPSAQELKEQGNRLFVGRKYPEAAACYGRAITRNPLVAVYYTNRALCYLKMQQHEQALADCRRALELDGQSVKAHFFLGQCQLEMESYDEAIANLQRAYSLAKEQRLNFGDDIPSALRIAKKKRWNSIEERRIHQESELHSYLSRLIAAERERELEECQRNHEGDEDDSHVRAQQACIEAKHDKYMADMDELFSQVDEKRKKRDIPDYLCGKISFELMREPCITPSGITYDRKDIEEHLQRVGHFDPVTRSPLTQEQLIPNLAMKEVIDAFISENGWVEDY
notes: also called CHIP-6His (WT); source: bacteria, purified (cloned into pET 23a)
For B2, the binding result in the assay with GST-cIAP1 [2] is listed as “binds”.

B3: CHIP K30A-6His (natural protein, UniProt Q9UNE7 1-303, looked up)
chain: MKGKEEKEGGARLGAGGGSPEKSPSAQELAEQGNRLFVGRKYPEAAACYGRAITRNPLVAVYYTNRALCYLKMQQHEQALADCRRALELDGQSVKAHFFLGQCQLEMESYDEAIANLQRAYSLAKEQRLNFGDDIPSALRIAKKKRWNSIEERRIHQESELHSYLSRLIAAERERELEECQRNHEGDEDDSHVRAQQACIEAKHDKYMADMDELFSQVDEKRKKRDIPDYLCGKISFELMREPCITPSGITYDRKDIEEHLQRVGHFDPVTRSPLTQEQLIPNLAMKEVIDAFISENGWVEDY
notes: also called CHIP-6His (K30A); source: bacteria, purified (cloned into pET 23a)
For B3, the binding result with GST-cIAP1 [2] is recorded as “binds”.
